Test results taken from publication PMC3880548 (Biochemistry, 2012).
Residue numbers refer to the chain shown, from its start. In names and notes the source's numbering stands.

B1: Shewanella oneidensis cytochrome c peroxidase, wild type (enzyme)
chain: AEPIEVITPAKITEPEKVELGKMLFFEPRLSKSGFISCNSCHNLSTGGVDALPTSIGHHWQEGPINSPTVLNADFMLAQFWDGRASNLKEQAAGPIANPKEMGFTHELATETIASMPAYRARFAKVYGDEKVDIDRLTDAIAAFEKTLVTPNSPFDQYLLGKQDAISGDAKAGYQLFKDKGCVSCHNGPAVGGTMFMKMGLIKPFHTNNPAEGRKGVTGKDADKFVFKVPTLRNIELTYPYFHDGSVWTLEEAVNTMADIQLGQKLTEKETKEMVAFLNSLTGEQPQISLPILPPSNKETPRPVPFATGAK
B2: Shewanella oneidensis cytochrome c peroxidase E321K charge reversal mutant (enzyme)
chain: B1 chain with E299K

Molecular target: the molecule itself
Test: SEC

Protein | stoichiometry N
B1 | 2
B2 | 2
